In IntAct's records for PubMed 33420071:

B1: Dual oxidase 1 (Homo sapiens), Q9NRD9 (parent)
chain: MGFCLALAWTLLVGAWTPLGAQNPISWEVQRFDGWYNNLMEHRWGSKGSRLQRLVPASYADGVYQPLGEPHLPNPRDLSNTISRGPAGLASLRNRTVLGVFFGYHVLSDLVSVETPGCPAEFLNIRIPPGDPMFDPDQRGDVVLPFQRSRWDPETGRSPSNPRDPANQVTGWLDGSAIYGSSHSWSDALRSFSRGQLASGPDPAFPRDSQNPLLMWAAPDPATGQNGPRGLYAFGAERGNREPFLQALGLLWFRYHNLWAQRLARQHPDWEDEELFQHARKRVIATYQNIAVYEWLPSFLQKTLPEYTGYRPFLDPSISSEFVAASEQFLSTMVPPGVYMRNASCHFQGVINRNSSVSRALRVCNSYWSREHPSLQSAEDVDALLLGMASQIAEREDHVLVEDVRDFWPGPLKFSRTDHLASCLQRGRDLGLPSYTKARAALGLSPITRWQDINPALSRSNDTVLEATAALYNQDLSWLELLPGGLLESHRDPGPLFSTIVLEQFVRLRDGDRYWFENTRNGLFSKKEIEEIRNTTLQDVLVAVINIDPSALQPNVFVWHKGDPCPQPRQLSTEGLPACAPSVVRDYFEGSGFGFGVTIGTLCCFPLVSLLSAWIVARLRMRNFKRLQGQDRQSIVSEKLVGGMEALEWQGHKEPCRPVLVYLQPGQIRVVDGRLTVLRTIQLQPPQKVNFVLSSNRGRRTLLLKIPKEYDLVLLFNLEEERQALVENLRGALKESGLSIQEWELREQELMRAAVTREQRRHLLETFFRHLFSQVLDINQADAGTLPLDSSQKVREALTCELSRAEFAESLGLKPQDMFVESMFSLADKDGNGYLSFREFLDILVVFMKGSPEEKSRLMFRMYDFDGNGLISKDEFIRMLRSFIEISNNCLSKAQLAEVVESMFRESGFQDKEELTWEDFHFMLRDHNSELRFTQLCVKGVEVPEVIKDLCRRASYISQDMICPSPRVSARCSRSDIETELTPQRLQCPMDTDPPQEIRRRFGKKVTSFQPLLFTEAHREKFQRSCLHQTVQQFKRFIENYRRHIGCVAVFYAIAGGLFLERAYYYAFAAHHTGITDTTRVGIILSRGTAASISFMFSYILLTMCRNLITFLRETFLNRYVPFDAAVDFHRLIASTAIVLTVLHSVGHVVNVYLFSISPLSVLSCLFPGLFHDDGSELPQKYYWWFFQTVPGLTGVVLLLILAIMYVFASHHFRRRSFRGFWLTHHLYILLYVLLIIHGSFALIQLPRFHIFFLVPAIIYGGDKLVSLSRKKVEISVVKAELLPSGVTHLRFQRPQGFEYKSGQWVRIACLALGTTEYHPFTLTSAPHEDTLSLHIRAAGPWTTRLREIYSAPTGDRCARYPKLYLDGPFGEGHQEWHKFEVSVLVGGGIGVTPFASILKDLVFKSSVSCQVFCKKIYFIWVTRTQRQFEWLADIIREVEENDHQDLVSVHIYITQLAEKFDLRTTMLYICERHFQKVLNRSLFTGLRSITHFGRPPFEPFFNSLQEVHPQVRKIGVFSCGPPGMTKNVEKACQLINRQDRTHFSHHYENF
partner: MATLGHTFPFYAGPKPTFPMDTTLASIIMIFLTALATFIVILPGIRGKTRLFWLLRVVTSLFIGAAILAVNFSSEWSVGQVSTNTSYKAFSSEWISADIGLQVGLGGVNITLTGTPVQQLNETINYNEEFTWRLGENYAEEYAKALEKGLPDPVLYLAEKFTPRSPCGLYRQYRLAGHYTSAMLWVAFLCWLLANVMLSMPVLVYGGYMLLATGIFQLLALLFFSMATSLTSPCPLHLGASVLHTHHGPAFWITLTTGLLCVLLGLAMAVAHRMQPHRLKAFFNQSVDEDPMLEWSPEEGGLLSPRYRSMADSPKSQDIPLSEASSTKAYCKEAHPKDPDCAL

Variants of: B1
Conditions: with doxa1_human DUOXA1, Q1HG43

| effect of a mutation on the interaction | Variant |
| --- | --- |
| disrupting interaction strength | R507A |
| disrupting interaction strength | R507E |
| disrupting interaction strength | R50E |
